Results: publication PMC8449659, “Depolymerization of biorefinery lignin by improved laccases of the white‐rot fungus Obba rivulosa” (Microbial Biotechnology, 2021)

Substrate: COc1cccc(OC)c1O
Assay: purified protein
Assay type: biochemical, Obba rivulosa
Details: O2 co-substrate, error is 95% confidence interval
[1] = pH 6.0, citrate phosphate buffer, 0-2 mM substrate
[2] = pH 3.5, citrate phosphate buffer, 0-31 mM substrate

B1: rOrLcc2-L497V (variant rOrLcc2-D206N) (Obba rivulosa; D227N/L518V) (protein)
chain: AIGPVTDLTITDVSISPDGFERAAVLAGGTFPGPLITGNIGDNFQINVVNQLSNETMLESTTIHWHGLFQKGTAWADGPAFVSQCPIATGNSFLYDFSVPDQAGTFWYHSHLATQYCDGLRGPLVVYDPNDAYLSDYDVDDDTTVITLADWYHTAATLGPRFPTQADATLINGLGRYSGGPESNLTVITVESGKRYRFRLVSISCNENYVFSIDDHEMIVIEADGVETQPVTVDSIQIFAAQRYSFILNATEAVDNYWIRATPDLGTTGFTDGINSAILRYVGANDTDPTTASNTTNLLSELDLHPLTNAAAPGAASQDPGSVDVSMNLELGFDGTNFTINGATFVPPTVPVLLQILSGAQSATDLLPSGSVFTLPSNSTVQVTLAAGTVAGGPHPFHLHGHTFSVVRSAGSDTYNYDNPVQRDTVSIGADGDNVTIRFDTNNPGPWFLHCHIDWHLNAGFAIVFAEDTADIASANPVPDSWSDLCPTYDALPSDEV
notes: codon-optimized cDNA in pPicZalphaA, C-terminal L497V to remove possible ER-retention signal SDEL, secreted from Pichia pastoris X-33, purified in two steps
[1]
  Km: 38 ± 0 µM
  Vmax: 150 µM/min
  kcat: 112 s⁻¹
  kcat/Km: 2.95e+06 M⁻¹ s⁻¹

B2: rOrLcc1 (variant rOrLcc1-D208N) (Obba rivulosa; D229N) (protein)
chain: AIGPVTDLVITDAFVTPDGPNLGREAVLAGGTFPGPLIQGNKGDNFQINVVNNLTNHTMLKTTSIHWHGLFQHGTNWADGPAFVNQCPIASGNSFLYNFNVPDQAGTFWYHSHLATQYCDGLRGPLVVYDPNDPYADLYDVDDESTVITLSDWYHAAASTLTFPTFDTTLINGLGRFAGTGGTDSDLAVITVEQGKRYRFRLAAISCNPNWVFSIDEHVMTIIEADAVNTLPLTVDAIQIFAAQRYSFVLNANQTVGNYWIRANPNNGNMGFANGINSAILRYSGATIEDPTTNSTIVNQLNEADLSPLTNPQAPGAPSQDPGAVDVAMNLAFSFNGTRLFINGVSFVPPSVPVLLQILSGSMTAQDLLPTGSVYTLPRNATVQISMPGNIIAGPHPFHLHGHTFSVIRSAGESDYNYDNPVQRDTVSIGGATDNVTIRFTTNNPGPWFLHCHIDWHLQAGFAIVFAEDTPDIASANPVPQAWSDLCPTYDALDPSDT
notes: codon-optimized cDNA in pPicZalphaA, secreted from Pichia pastoris X-33, purified in two steps
[2]
  Km: 3668 ± 270 µM
  Vmax: 216 µM/min
  kcat: 44 s⁻¹
  kcat/Km: 12000 M⁻¹ s⁻¹
